Experiment [1] concerns the target T1, recombinant soluble HCV E1 protein (hepatitis C virus).
T1 construct: It is not the cell-surface E1-myc construct (aa 174-359 of H77c) that was used for phage selection; also called recombinant E1; soluble E1 protein
Kind of experiment: ELISA, recombinant E1 captured on GNA lectin; crude periplasmic Fab. (In general: An ELISA detects its analyte on a solid surface through an enzyme-linked reagent.)

In experiment [2] the target is T2, recombinant E1/E2 heterodimer protein (genotype 1a) (hepatitis C virus genotype 1a, UniProt P26664 192-383; P26664 384-746, limits assumed).
T2 construct: also called E1/E2 in complex; recombinant E1/E2 antigen
Kind of experiment: ELISA, E1/E2 heterodimer coated; crude periplasmic Fab.

The text below walks through data of patent publication US20040208887A1 (MOLECULES OF MAN, published 2004).

T2 sequence (P26664 192-383 limits assumed, chain 1 of 2): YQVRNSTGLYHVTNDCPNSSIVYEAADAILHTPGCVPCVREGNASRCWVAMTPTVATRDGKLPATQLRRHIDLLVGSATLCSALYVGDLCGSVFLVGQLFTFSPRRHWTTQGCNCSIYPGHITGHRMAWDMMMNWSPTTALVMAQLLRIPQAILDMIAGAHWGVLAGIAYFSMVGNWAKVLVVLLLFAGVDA
T2 sequence (P26664 384-746 limits assumed, chain 2 of 2): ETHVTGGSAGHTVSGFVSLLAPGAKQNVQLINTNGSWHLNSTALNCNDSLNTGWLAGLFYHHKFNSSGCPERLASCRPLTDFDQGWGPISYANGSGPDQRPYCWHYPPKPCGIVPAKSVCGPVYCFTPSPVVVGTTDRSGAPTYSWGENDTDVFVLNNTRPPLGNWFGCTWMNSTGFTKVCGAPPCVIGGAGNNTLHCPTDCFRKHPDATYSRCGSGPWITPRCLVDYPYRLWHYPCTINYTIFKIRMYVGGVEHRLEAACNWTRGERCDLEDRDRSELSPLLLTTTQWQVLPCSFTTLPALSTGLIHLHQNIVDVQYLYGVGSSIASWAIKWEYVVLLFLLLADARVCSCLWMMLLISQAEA

B1: Fab clone 2a-14 (Fab, V domains shown)
VH: VQLLEQSGGGVVQPGRSLRLSCAASGFTFSTYAMHWVRQAPGKGLEWVAVISHDGSNKFYADSVKGRFTISRDSSKNTLYLQMNSLRPGDTAVYYCSRWDRRAEYFQDWGQGTLVTVSS
VL: AELTQSPAFMSATPGDKVNISCKASQDIDDDMNWYQQKPGEAAIFIIQEATTLVPGIPPRFSGSGYGTDFTLTINNIESEDAAYYFCLQHDNFPLTFGQGTKVEIK
notes: Human Fab (gamma1 Fd + kappa), crude periplasmic preparation, approx. 0.72 ug Fab/ml
For B1, the figures for the OD405 nm in experiment [1] and in experiment [2] were 0.36 OD405 nm and 0.09 OD405 nm, respectively.

B2: Fab clone 2a-23 (Fab, V domains shown)
VH: EVQLLESGAGVVQPGKSLTLSCVGSGFTFSIYAMHWVRQAPGKGLEWVAVLSSDGSNDYYADSVKGRFSIFRDTSKNSLNLLMNNVRGEDTAVYYCARDGDGSFFYWGQGTLVTVSS
VL: B1 VL
notes: Human Fab (gamma1 Fd + kappa), crude periplasmic preparation, approx. 0.50 ug Fab/ml
On to B2, for which the OD405 nm in experiment [1] turned out to be 1.47 OD405 nm.

B3: Fab clone 2a-40 (Fab, V domains shown)
VH: VQLLEQSGGGLVKPGGSLRLSCTASGFTFSGFTFSDHYMSWIRQAPGKGLELVSYIISNGYTNYPDSVKGRFTVSRDNARKSLYLQMNSLRVEDTAIYYCARGLSPSIAGDGFDIWGQGTMVTVSS
VL: B1 VL
notes: Human Fab (gamma1 Fd + kappa), crude periplasmic preparation, approx. 1.0 ug Fab/ml
Turning to B3, the OD405 nm in experiment [2] was 0.17 OD405 nm.

B4: Fab clone 6a:5 (Fab, V domains shown)
VH: EVQLLESGPGLVKPSQTLSLTCAISGDNVSRKSAAWNWIRQSPSRGLEWLGRTYHMSKWYSVYATSLKSRININVDTSRNQFALQLRSVTPEDTAVYYCAREGPEWAVGGTYGMDVWGQGTTVTVSS
VL: AELTQSPDTLSLSPGERATLSCRASQSVNNNYLAWYQQKPGQAPRLLIYGASSRATGIPDRFSGSGSETDFTLTISRLEPEDFAVYYCQQYDSSRTFGQGTKVEIK
notes: Tested as a human Fab (gamma1 Fd + kappa), crude periplasmic preparation, approx. 0.33 ug Fab/ml
With B4, the figures for the OD405 nm in experiment [1] and in experiment [2] were 0.15 OD405 nm and 0.09 OD405 nm, respectively.

B5: Fab clone 2a-25 (Fab, V domains shown)
VH: VQLLEQSGAEVKKPGASVKVSCKASGYMFTCYYMHWVRQAPGQGLEWMGMVNPTGGSSSYAQKFQGRVTMTKGHVTSTVYMELSSLRSEDTAVYYCATGMVRGDEWGQGTLVTVSS
VL: AELTQSPSFSSASVGDRVTITCRASHGISSHLAWFQHKPGKAPNLLIYAASTLQSGVPSRFSGSQSGTEFTLTITSLHPEDFATYYCQQLYTWPMGFGQGTRLEIT
notes: Human Fab (gamma1 Fd + kappa), crude periplasmic preparation, approx. 0.11 ug Fab/ml
B5: in experiment [1], the OD405 nm came out at 1.46 OD405 nm.

B6: Fab clone 4:6 (Fab, V domains shown)
VH: VQLLEQSGAEVKKPGASVKVSCKASGYTFTKYYLHWVRQAPGQGLEWMGFINPSGGSTSSAQKFQGRISMTRDTSTTTVYMEVNSVTSEDTAVYYCARVGRLGVGATGAFDLWGQGTMVTVSS
VL: AELTQSPSSLSASVGDRVTITCQASQDINYSLNWYQQKPGKPPKLLIYYASHSDTGVPSRFSGGGSGTRFTLTIYSLQPEDIATYYCQHFDHVPRYTFGPGTKVDLK
notes: Tested as a human Fab (gamma1 Fd + kappa), crude periplasmic preparation, approx. 0.24 ug Fab/ml
In the case of B6, the OD405 nm in experiment [1] was 0.97 OD405 nm; in experiment [2], 0.2 OD405 nm.

B7: Fab clone 13 (Fab, V domains shown)
VH: EVQLLESGGGLVQPGRSLRLSCAASGFTFDDYGMHWVRQAPGKGLEWVSGLSWNSDNIGYADSVKGRFTISRDNAKNSLYLQMNSLKIEDTAFYYCAKAPRTLRFLEWHNVYFDLWGRGTLVTVSS
VL: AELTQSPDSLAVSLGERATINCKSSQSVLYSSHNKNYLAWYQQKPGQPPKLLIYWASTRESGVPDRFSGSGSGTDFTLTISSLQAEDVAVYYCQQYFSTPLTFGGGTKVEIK
notes: Human Fab (gamma1 Fd + kappa light chain), tested as a crude periplasmic preparation, approx. >3 ug Fab/ml
For B7, the OD405 nm in experiment [1] worked out at 0.2 OD405 nm.

B8: Fab clone 2a-30 (Fab, V domains shown)
VH: VQLLEQSGGGLVQPGGSLRLSCTASGFTLTDYSMDWVRQAPGKGPEWVGRSRNKANIYTTEYAASVKGRFVISRDDSENSVYLQMNNVKMDDTAVYYCARGEGIFYGSGSLDLWGQGAVVTVSS
VL: AELTQSPSSLSASVGDRVTITCRSSQSISNSLHWFQQEPGKAPKLLIYAASTLQSGVPSRFSGSGSGTDFTLIITGLQPEDFATYYCQQSPRTPLTFGGGTKVEIR
notes: Human Fab (gamma1 Fd + kappa), crude periplasmic preparation, approx. 0.96 ug Fab/ml
As for B8, the OD405 nm in experiment [1] worked out at 1.11 OD405 nm; in experiment [2], 0.52 OD405 nm.

B9: Fab clone 98 (Fab, V domains shown)
VH: EVQLLEQSGAEVKKPGESLRISCRGSGYSFPNYWVSWVRQMPGKGLEWMGKIDPSDSETNYSPSFQGHVTISADKSLSIAYLQWNSLKASDTAMYHCARHKRGAPTYKDILTGYYVDGMDVWGQGTTDTVSS
VL: AELTQSPSSLSASVGDRVTITCQASPDISNYLNWYQQKPGKAPNLLIYGASSLQRGVPSRLSGSGSGTDFTLTIDSLQPEDFATYYCQQSYGSPHTFGQGTKVEIK
notes: Human Fab (gamma1 Fd + kappa light chain), tested as a crude periplasmic preparation, approx. 5 ug Fab/ml
B9: the OD405 nm in experiment [1] is 0.2 OD405 nm.

B10: Fab clone 2b-9 (Fab, V domains shown)
VH: LLESGPGLVQPSQTLSLTYAISGDSVSSNSAAWTWIRQSPSRGLEWLGMTYYRSQWYHEYAVSLKSRITINADTSNNQFSLQVNSVTPEDTALYYCARARFVGDTTGYYTFDYWGQGTLVTVSS
VL: AELTQSPGTLSLSPGERGTLSCRASQSVSSSYLAWYQQKAGQAPRLLIYGASSRATGIPDRFSGSGSGTDFTLTISRLEPEDFAVYYCQRYGTSPKTFGQGTKVEFK
notes: Human Fab (gamma1 Fd + kappa), crude periplasmic preparation, approx. 0.19 ug Fab/ml
As for B10, the OD405 nm in experiment [1] is 0.33 OD405 nm.

B11: Fab clone 2a-5 (Fab, V domains shown)
VH: EVQLLESGPGLVKPSETLSLTCTVSTGSISGYFWSWIRQPPGKGLEWIAYIHNSGNTNYNPSLRSRVTVSIDTSKNQFSLKLTSVTAADTAVYYCARDGGGWDTYLDSWGQGFLVTVSS
VL: AELTQSPSSLSASVGDRVTITCRASQTVSSYLNWYQQKPGKAPKVLIYGISTLQSGVPSRFSGSGSETDFTLTISNLQPEDFAIYYCQQSYSSRTFGQGTKVEIK
notes: Human Fab (gamma1 Fd + kappa), crude periplasmic preparation, approx. 0.44 ug Fab/ml
With B11, the figures for the OD405 nm in experiment [1] and in experiment [2] were 0.89 OD405 nm and 0.08 OD405 nm, respectively.

B12: Fab clone 2a-32 (Fab, V domains shown)
VH: VQLLEQSGGDLVKPGGSLRLSCAASGFTFTDYYMNWIRQAPGKGLEWIAYISIGSDDTKYAASVKGRFSISRDNAKNSLYLQMNSLRVEDTAVYYCGRGGGYCSGGNCYSSDYWGQGALVTVSS
VL: AELTQSPSSLSAFTGDRVSITCRASQGIGNSLAWYQQKPGHVPKVLIYDASTLSSGAPSRFSGSGSGTDFTLTISGLQPEDVATYYCQKYKSAPLTFGGGTKVEIR
notes: Human Fab (gamma1 Fd + kappa), crude periplasmic preparation, approx. >1 ug Fab/ml
Regarding B12, the OD405 nm in experiment [1] was determined as 0.61 OD405 nm; in experiment [2], 0.09 OD405 nm.

B13: Fab clone 1:9 (Fab, V domains shown)
VH: EVQLLESGPGLVKPSETLSLTCTVSGNSISSGYYWVWFRQSPGKGLEWIASIYHSGSTYYNPSLRSRVSISVDTSKKQFSLKLSSVTAADTAVYYCARDSAKTTRYFVHWGQGTLVTVSS
VL: AELTQSPGTLSLSPGERATLSCRASQSVSSSYLAWYQQKAGQAPRLLIYGASRRATGIPVRFSGSGSGAEFTLTISSLQSEDSAVYYCQHYHNWPAMYTFGQGTKLEIK
notes: Human Fab (gamma1 Fd + kappa), crude periplasmic preparation, approx. 0.05 ug Fab/ml
For B13, the OD405 nm in experiment [1] worked out at 0.96 OD405 nm; in experiment [2], 0.67 OD405 nm.

B14: Fab clone 2a-37 (Fab, V domains shown)
VH: EVQLLESGGGLVQPGRSLRLSCAASGFTFSNSDMHWVRQAPGKGLEWVTVSSRDGYDNYYADSVRGRFTISRDNSKNTLYLQMNTLRAEDTAVYYCAKRRGYAFDIWGQGTMVTVSS
VL: AELTQSPSSLSASVGDRVTITCRASQSINTYLNWYQQKPGKAPELLIYGASSLQSGVPSRFSGSGSGTDFTLTITSLQAEDFASYFCQQSDSTPRTFGQGTKVEIK
notes: Human Fab (gamma1 Fd + kappa), crude periplasmic preparation, approx. 0.08 ug Fab/ml
Take B14: the OD405 nm was determined as 0.99 OD405 nm in experiment [1] and 0.48 OD405 nm in experiment [2].

B15: Fab clone 2b-17 (Fab, V domains shown)
VH: B14 VH
VL: B14 VL
notes: Human Fab (gamma1 Fd + kappa), crude periplasmic preparation, approx. 0.16 ug Fab/ml
Regarding B15, the OD405 nm in experiment [1] is 0.24 OD405 nm.

B16: Fab clone 1:8 (Fab, V domains shown)
VH: EVQLLESGGGLVEPGRSLRLSCAASGFNFGDYAIHWVRQGPGKGLEWVAGISWNSGSIGYADSVKGRFIISRDNAKKTLFLQMNTLRTEDTALYYCVKETGAQGVAGSGAYYFHNWGQGTLVTVSS
VL: AELTQSPSSLSASIGDRVTITCRASQGISNYVAWYQQRPGKVPKLLIFGASALHSGVPSRFSGSGSGTDFTLTITSLQPEDVATYYCQKYRSAPLTFGPGTRVDLK
notes: Human Fab (gamma1 Fd + kappa), crude periplasmic preparation, approx. 0.01 ug Fab/ml
In the case of B16, the OD405 nm in experiment [1] was 0.75 OD405 nm; in experiment [2], 0.53 OD405 nm.

B17: Fab clone 1:10 (Fab, V domains shown)
VH: EVQLLESGAEVKKPGESLRISCRGSGYSFPNYWVSWVRQMPGKGLEWMGKIDPSDSETNYSPSFQGHVTISADKSLSIAYLQWNSLKASDTAMYYCARHKRGAPTYKDILTGYYVDGMDVWGQGTTVTVSS
VL: AELTQSPDSLAMSLGERASINCKSSRSLLYSSNNKNYLAWYQQKSGHPPKLLIYWASTRESGVPDRFNGSGSGTDFTLTISSLQAEDVAVYFCQQYYSSPLTFGGGTKVEIK
notes: as for B16
As for B17, the OD405 nm in experiment [1] was 0.2 OD405 nm; in experiment [2] it was 0.12 OD405 nm.

B18: Fab clone 2b-1 (Fab, V domains shown)
VH: EVQLLESGPRLVKPSQTLSLTCTVSGDSLNNASHYWAWIRQPAGKGLEWIGRIHRGGSTNYNPSLQSRVTISMDESKNQFSLRLNSVTAADTAVYYCARDPPKAWGPGILVTVSS
VL: AELTQSPSSLSASVGDRVTIACRASQSISNHLNWYQQKPGKAPKVLIYAASSLQSGVPSRFSGSGSGTDFTLTISSLQPEDFAIYYCQQSYSNADFGPGTKVDIK
notes: Human Fab (gamma1 Fd + kappa), crude periplasmic preparation, approx. 0.94 ug Fab/ml
For B18, the OD405 nm in experiment [1] was 0.35 OD405 nm; in experiment [2], 0.12 OD405 nm.

B19: Fab clone 2a-4 (Fab, V domains shown)
VH: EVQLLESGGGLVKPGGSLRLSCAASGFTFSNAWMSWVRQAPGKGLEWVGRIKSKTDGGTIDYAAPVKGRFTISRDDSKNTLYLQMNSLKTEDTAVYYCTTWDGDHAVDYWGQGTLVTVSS
VL: AELTQSPSSLSASIGDRVAISCQASQDIGNYLNWYQQKPGKAPRLLIYDASNLEAGVPSRFSGSGSGTDFTLTISTLQPEDFATFYCQQTDSTPYTFGQGTKLEIR
notes: as for B3
Consider B19, for which the OD405 nm in experiment [1] turned out to be 1.18 OD405 nm.

B20: Fab clone 2a-33 (Fab, V domains shown)
VH: VQLLEQSGGGLVQPGRSLRLSCAASGFTFDDYAMHWVRQTPGKGLEWVSGIGWNSGTIEYADSVKGRFTISRDNAKNSLYLQMNSLRPEDTALYYCAKDLHSFGYCSGRSCYFHPFDYWGQGTLVTVSS
VL: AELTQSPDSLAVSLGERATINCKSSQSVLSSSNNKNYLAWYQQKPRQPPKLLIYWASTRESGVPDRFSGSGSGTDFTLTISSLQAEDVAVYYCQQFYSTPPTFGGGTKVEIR
notes: as for B12
B20: the figures for the OD405 nm in experiment [1] and in experiment [2] were 0.65 OD405 nm and 0.14 OD405 nm, respectively.

B21: Fab clone 2a-13 (Fab, V domains shown)
VH: EVQLLESGPGLVKPSETLSLTCTVSGGSISDYYWSWIRQPPGKGLEWIGHTYDNGGTKYNPSLKSRASISVDTSKNQVSLRLTSVTAADTAVYYCATAFLDNSGWYTFDSWGQGSLVTV
VL: AELTQSPSSVSASVRDRVTITCRASQGISTWLAWYQQKPGKAPKLLIYAASTLQSGVPSRFSGSGSGTDFTLTIGSLQPEDVATYYCQQANSFPPGALTFGGGTKVEVK
notes: Human Fab (gamma1 Fd + kappa), crude periplasmic preparation, approx. 0.36 ug Fab/ml
For B21, the OD405 nm in experiment [1] was 1.05 OD405 nm.
